According to paper PMC7822942:

Tests used:
Assay in all cases: thermodynamic integration MD simulation (TIMD; computed, not an experimental measurement)
[1] = molecular target: rat gephyrin E-domain (amino acids 318-736) G545A (other chain of the homodimer); settings: E-domain dimer; value per mutation point; read off a plot
[2] = molecular target: rat gephyrin G-domain (amino acids 1-188) V43L (other chains of the homotrimer); settings: G-domain trimer; value per mutation point; read off a plot
[3] = molecular target: rat gephyrin E-domain (amino acids 318-736) G375D (other chain of the homodimer); settings: E-domain dimer; value per mutation point; read off a plot
[4] = molecular target: rat gephyrin E-domain (amino acids 318-736) D664N (other chain of the homodimer); settings: E-domain dimer; value per mutation point; read off a plot
[5] = molecular target: rat gephyrin E-domain (amino acids 318-736) G545S (other chain of the homodimer); settings: E-domain dimer; value per mutation point; read off a plot
[6] = molecular target: rat gephyrin G-domain (amino acids 1-188) A91T (other chains of the homotrimer); settings: G-domain trimer; value per mutation point; read off a plot

“rat gephyrin E-domain WT (amino acids 318-736) G545A” gave a ddG [1] of 0.3 kcal/mol.

For “rat gephyrin G-domain WT (amino acids 1-188) V43L”, the ddG [2] was -0.95 kcal/mol.

Work on “rat gephyrin E-domain WT (amino acids 318-736) G375D” yielded a ddG [3] of 5.7 kcal/mol.

Work on “rat gephyrin E-domain WT (amino acids 318-736) D664N” yielded a ddG [4] of -0.7 kcal/mol.

“rat gephyrin E-domain WT (amino acids 318-736) G545S” gave a ddG [5] of 0.2 kcal/mol.

For “rat gephyrin G-domain WT (amino acids 1-188) A91T”, the ddG [6] was 1.7 kcal/mol.
